Results published in US20240092867A1 (UNIVERSITY OF CHICAGO, published 2024).

Key:
[1] = biological target: T1, vascular endothelial growth factor (VEGF)-A121 (human, UniProt P15692-9 27-147); test: ELISA; peptides and vWF forms coated at 50 nM, VEGF-A in solution, detected with anti-VEGF-A antibody [panel D]
T1 construct: mature; Purchased in mature form, not glycosylated
T1 sequence (looked up): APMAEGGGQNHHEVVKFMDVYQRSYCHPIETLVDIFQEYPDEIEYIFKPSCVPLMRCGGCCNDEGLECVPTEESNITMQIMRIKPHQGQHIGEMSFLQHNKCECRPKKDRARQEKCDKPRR
Experimental: (A) Diagram of exon sequence of VEGF-A showing inclusion (+) or exclusion (−) of heparin binding domain exons for the different VEGF-A isoforms. […] Bound VEGF-A was detected using a specific antibody for VEGF-A (n=4, mean±SD). Statistical comparisons were done using ANOVA with Tukey's test compared with BSA control. **p<0.01.
(§1) ELISA was performed as previously reported1. […] After blocking with 2% BSA solution containing PBS-T, 1 μg/mL of recombinant human VEGF-A121 (PeproTech), recombinant human VEGF-A145 (R & D Systems), or recombinant human VEGF-A165 (PeproTech) was added. Bound VEGF-A was detected with 1 μg/mL of mouse anti-human VEGF-A antibody (clone: 26503, R & D systems). After 60 min of incubation, horseradish peroxidase (HRP) conjugated goat anti-mouse antibody (1:2000 dilution, Dako) was added and incubated for another 60 min. Color development and the absorbance measurement were done as described above.

[2] = biological target: T2, vascular endothelial growth factor (VEGF)-A165 (human, UniProt P15692-4 27-191); test: ELISA, peptide coated 50 nM
T2 construct: mature; Purchased in mature form, not glycosylated
Experimental: as §1

[3] = biological target: T3, recombinant human VEGF-A145 (human, UniProt P15692-6 27-171); test: ELISA, peptide coated 50 nM
T3 sequence (looked up): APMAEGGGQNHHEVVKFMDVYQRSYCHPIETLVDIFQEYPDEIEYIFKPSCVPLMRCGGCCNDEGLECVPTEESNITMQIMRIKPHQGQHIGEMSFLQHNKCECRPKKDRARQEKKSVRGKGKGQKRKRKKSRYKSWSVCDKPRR
Experimental: as §1

[4] = biological target: T4, fibroblast growth factor (FGF)-2 (human, UniProt P09038 143-288); test: ELISA, peptide coated
T4 construct: mature; Purchased in mature form
Procedure, shortened: (§2)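 Wells coated with 10 μg/mL laminin α3/α4/α5 LG-domain peptides, BSA-coated wells as non-binding control, blocked with 2% BSA PBS-T. Recombinant human GFs added at 1 μg/mL; bound GF detected with GF-specific biotinylated antibody plus streptavidin-HRP (n=4, mean±SEM).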

[5] = biological target: T2, vascular endothelial growth factor …; test: ELISA, peptide coated
Procedure, shortened: as §2

[6] = biological target: T5, placental growth factor (PlGF)-1 (human, UniProt P49763-2 19-149); test: ELISA, peptide coated
T5 construct: mature; Purchased in mature form
T5 sequence (looked up): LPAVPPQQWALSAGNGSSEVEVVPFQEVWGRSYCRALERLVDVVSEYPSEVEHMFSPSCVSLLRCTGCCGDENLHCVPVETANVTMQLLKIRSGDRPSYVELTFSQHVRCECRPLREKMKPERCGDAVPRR
Procedure, shortened: as §2

[7] = biological target: T6, platelet-derived growth factor (PDGF)-BB (human, UniProt P01127 82-190); test: ELISA, peptide coated
T6 construct: mature; Purchased in mature form
Procedure, shortened: as §2

[8] = biological target: T1, vascular endothelial growth factor …; test: ELISA, peptide coated
Procedure, shortened: as §2

[9] = biological target: T7, placental growth factor (PlGF)-2 (human, UniProt P49763-3 19-170); test: ELISA, peptide coated
T7 construct: mature; Purchased in mature form
T7 sequence (looked up): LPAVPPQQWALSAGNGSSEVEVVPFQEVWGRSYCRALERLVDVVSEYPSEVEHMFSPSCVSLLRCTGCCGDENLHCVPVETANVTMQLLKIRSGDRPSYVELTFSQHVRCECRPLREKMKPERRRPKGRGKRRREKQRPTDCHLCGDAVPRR
Procedure, shortened: as §2

T4 sequence (P09038 143-288): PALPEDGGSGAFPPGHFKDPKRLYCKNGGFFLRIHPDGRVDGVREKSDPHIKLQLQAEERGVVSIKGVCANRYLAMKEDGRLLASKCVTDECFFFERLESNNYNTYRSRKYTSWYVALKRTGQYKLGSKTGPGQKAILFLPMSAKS
T6 sequence (P01127 82-190): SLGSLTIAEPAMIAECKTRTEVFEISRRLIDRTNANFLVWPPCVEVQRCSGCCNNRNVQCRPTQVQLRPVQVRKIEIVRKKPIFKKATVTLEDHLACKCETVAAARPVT

| Binder | binding result [1] | binding result [2] | binding result [3] | binding result [4] | binding result [5] | binding result [6] | binding result [7] | binding result [8] | binding result [9] |
| --- | --- | --- | --- | --- | --- | --- | --- | --- | --- |
| LYCEIARGYSLKRKVPDQIRSRKA (also called scrambled vWF A1 HBD peptide) [Scrambled HBD] | no binding (tested: 1 µg/mL VEGF-A121 (single concentration)) | no binding (tested: 1 µg/mL) | no binding (tested: 1 µg/mL) | – | – | – | – | – | – |
| ARKASRRSRQPARH (Chemically synthesized (Genscript)) [laminin α5 3312-3325 peptide (Linker)] | – | – | – | no binding (tested: 1 µg/mL) | no binding (tested: 1 µg/mL) | no binding (tested: 1 µg/mL) | no binding (tested: 1 µg/mL) | no binding (tested: 1 µg/mL) | no binding (tested: 1 µg/mL) |
